{"source": "IntAct's records for PubMed 16616186", "parents": {"B1": {"name": "Rho guanine nucleotide exchange factor 9 (Rattus norvegicus (Rat)), Q9QX73 (parent)", "chain": "MQWIRGGSGMLITGDSIVSAEAVWDHVTMANRGVAFKAGDVIKVLDASNKDWWWGQIDDEEGWFPASFVRLWVNQEDGVEEGPSDVQNGHLDPNSDCLCLGRPLQNRDQMRANVINEIMSTERHYIKHLKDICEGYLKQCRKRRDMFSDEQLKVIFGNIEDIYRFQMGFVRDLEKQYNNDDPHLSEIGPCFLEHQDGFWIYSEYCNNHLDACMELSKLMKDSRYQHFFEACRLLQQMIDIAIDGFLLTPVQKICKYPLQLAELLKYTAQDHSDYRYVAAALAVMRNVTQQINERKRRLENIDKIAQWQASVLDWEGDDILDRSSELIYTGEMAWIYQPYGRNQQRVFFLFDHQMVLCKKDLIRRDILYYKGRIDMDKYEVIDIEDGRDDDFNVSMKNAFKLHNKETEEVHLFFAKKLEEKIRWLRAFREERKMVQEDEKIGFEISENQKRQAAMTVRKASKQKGRVGEEENQSLELKRACEVLQRLWSPGKKS", "partner": "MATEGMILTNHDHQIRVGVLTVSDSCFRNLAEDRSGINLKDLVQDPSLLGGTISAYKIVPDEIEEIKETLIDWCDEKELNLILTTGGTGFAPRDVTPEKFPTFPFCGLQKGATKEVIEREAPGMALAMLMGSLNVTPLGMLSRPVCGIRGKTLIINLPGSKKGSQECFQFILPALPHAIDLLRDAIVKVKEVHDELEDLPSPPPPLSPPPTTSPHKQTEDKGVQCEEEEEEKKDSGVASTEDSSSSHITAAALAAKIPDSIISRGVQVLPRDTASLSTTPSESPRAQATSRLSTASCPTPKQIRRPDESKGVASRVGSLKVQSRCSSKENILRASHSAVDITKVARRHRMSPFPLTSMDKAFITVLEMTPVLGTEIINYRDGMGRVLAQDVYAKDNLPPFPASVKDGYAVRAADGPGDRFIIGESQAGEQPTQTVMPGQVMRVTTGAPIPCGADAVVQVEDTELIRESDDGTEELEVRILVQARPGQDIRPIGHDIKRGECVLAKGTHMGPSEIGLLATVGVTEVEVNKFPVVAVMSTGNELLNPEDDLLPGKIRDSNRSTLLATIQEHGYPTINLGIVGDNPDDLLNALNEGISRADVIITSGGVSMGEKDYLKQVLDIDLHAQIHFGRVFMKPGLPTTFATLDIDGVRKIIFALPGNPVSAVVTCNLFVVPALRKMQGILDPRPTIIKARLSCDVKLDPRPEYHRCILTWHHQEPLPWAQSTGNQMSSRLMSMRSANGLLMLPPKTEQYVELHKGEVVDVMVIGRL"}}, "data": [{"variants_of": "B1", "conditions": "with geph_rat Gphn", "values": [{"variant": "MQWIRGGSGMLITGDSIVSAEAVWDHVTMANRGVAFKAGDVIKVLDASNKDWWWGQIDDEEGWFPASFVRLWVNQEDGVEEGPSDVQNGHLDPNSDCLCLGRPLQNAAQMRANVINAIMSTERHYIKHLKDICEGYLKQCRKRRDMFSDEQLKVIFGNIEDIYRFQMGFVRDLEKQYNNDDPHLSEIGPCFLEHQDGFWIYSEYCNNHLDACMELSKLMKDSRYQHFFEACRLLQQMIDIAIDGFLLTPVQKICKYPLQLAELLKYTAQDHSDYRYVAAALAVMRNVTQQINERKRRLENIDKIAQWQASVLDWEGDDILDRSSELIYTGEMAWIYQPYGRNQQRVFFLFDHQMVLCKKDLIRRDILYYKGRIDMDKYEVIDIEDGRDDDFNVSMKNAFKLHNKETEEVHLFFAKKLEEKIRWLRAFREERKMVQEDEKIGFEISENQKRQAAMTVRKASKQKGRVGEEENQSLELKRACEVLQRLWSPGKKS", "note": "[R107A;D108A;E117A]", "effect of a mutation on the interaction": "with no effect"}, {"variant": "MQWIRGGSGMLITGDSIVSAEAVWDHVTMANRGVAFKAGDVIKVLDASNKDWWWGQIDDEEGWFPASFVRLWVNQEDGVEEGPSDVQNGHLDPNSDCLCLGRPLQNRDQMAANVINEIMSTERHYIKHLKDICEGYLKQCRKRRDMFSDEQLKVIFGNIEDIYRFQMGFVRDLEKQYNNDDPHLSEIGPCFLEHQDGFWIYSEYCNNHLDACMELSKLMKDSRYQHFFEACRLLQQMIDIAIDGFLLTPVQKICKYPLQLAELLKYTAQDHSDYRYVAAALAVMRNVTQQINERKRRLENIDKIAQWQASVLDWEGDDILDRSSELIYTGEMAWIYQPYGRNQQRVFFLFDHQMVLCKKDLIRRDILYYKGRIDMDKYEVIDIEDGRDDDFNVSMKNAFKLHNKETEEVHLFFAKKLEEKIRWLRAFREERKMVQEDEKIGFEISENQKRQAAMTVRKASKQKGRVGEEENQSLELKRACEVLQRLWSPGKKS", "note": "[R111A]", "effect of a mutation on the interaction": "disrupting interaction"}]}, {"variants_of": "B1", "conditions": "with geph_rat Gphn", "remark": "another data set of the same source", "values": [{"variant": "MQWIRGGSGMLITGDSIVSAEAVWDHVTMANRGVAFKAGDVIKVLDASNKDWWWGQIDDEEGWFPASFVRLWVNQEDGVEEGPSDVQNGHLDPNSDCLCLGRPLQNAAQMRANVINAIMSTERHYIKHLKDICEGYLKQCRKRRDMFSDEQLKVIFGNIEDIYRFQMGFVRDLEKQYNNDDPHLSEIGPCFLEHQDGFWIYSEYCNNHLDACMELSKLMKDSRYQHFFEACRLLQQMIDIAIDGFLLTPVQKICKYPLQLAELLKYTAQDHSDYRYVAAALAVMRNVTQQINERKRRLENIDKIAQWQASVLDWEGDDILDRSSELIYTGEMAWIYQPYGRNQQRVFFLFDHQMVLCKKDLIRRDILYYKGRIDMDKYEVIDIEDGRDDDFNVSMKNAFKLHNKETEEVHLFFAKKLEEKIRWLRAFREERKMVQEDEKIGFEISENQKRQAAMTVRKASKQKGRVGEEENQSLELKRACEVLQRLWSPGKKS", "note": "[R107A;D108A;E117A]", "effect of a mutation on the interaction": "disrupting interaction strength"}]}]}
